# Source: the supplement of paper PMC9170038
# Key:
# MS2 coat protein [1] = test: apparent KD of MS2 coat protein; designed switch direction (-1 OFF switch, 1 ON switch): 1; higher = weaker reporter binding; conditions: Eterna round: R98
# Experimental: (§1)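 RNA-MaP: designed FMN/MS2 RNA switches (84 nt design region) are transcribed on-chip within common flanks and titrated with SNAP-549-labelled MS2 coat protein (about 1-3000 nM) in 100 mM Tris pH 7.5, 80 mM KCl, 4 mM MgCl2, without or with 200 uM FMN. Median apparent KD per design; activation ratio = KD,OFF / KD,ON.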
# MS2 coat protein [2] = test: apparent KD of MS2 coat protein; higher = weaker reporter binding; conditions: Eterna round: R101
# Experimental: as §1
# MS2 coat protein [3] = test: apparent KD of MS2 coat protein, switch ON state; designed switch direction (-1 OFF switch, 1 ON switch): 1; higher = weaker reporter binding; conditions: FMN input: 0 or 200 uM; Eterna round: R93 (includes R88 designs)
# Method in brief: (§2)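 Titration buffer: 100 mM Tris-HCl pH 7.5, 80 mM KCl, 4 mM MgCl2, without or with constant ligand. Designed RNA switches transcribed on-chip from Illumina sequencing clusters received SNAP-549-labelled MS2 coat protein in twofold steps from 0.7 or 1.5 nM to 3 µM. Apparent KD is the median per design of fits to normalised cluster binding curves.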
# MS2 coat protein [4] = test: apparent KD of MS2 coat protein, switch OFF state (with FMN for OFF switches, without FMN for ON switches); designed switch direction (-1 OFF switch, 1 ON switch): 1; higher = weaker reporter binding; conditions: FMN input: 0 or 200 uM; Eterna round: R93 (includes R88 designs)
# Method in brief: as §2
Sequence,apparent KD of MS2 coat protein (MS2 coat protein [1]; input ligand: FMN 200 uM) [nM],apparent KD of MS2 coat protein (MS2 coat protein [1]; input ligand: none) [nM],apparent KD of MS2 coat protein (MS2 coat protein [2]; input ligand: FMN 200 uM) [nM],further results
GGUCCAUCAUGAGGAUAUGGCACCUUAUUGGUGCCAGAAGGCAUGUCUUUUGACAUGAGGAUCACCCAUGUAAUAAAUUGGACC [Pyrimidine booster 6],130,1920,–,–
GCACUCAAGUUAGGAUAUGGAUCGGAAACCGAUCCAGAAGGAACACGAAAACAUGAGCAUCAGCCGUGUUCCAGAAACGAGUGC [SameSame 14 - Jieux - Same State NG 1],347,917,–,–
"CGAGACACUUGAGGAUAUGCUCAGGAUAACUGAGCAGAAGGCAGGAAAACCUGAGGAUCACCCAGGUAACUGGAAAGUCUCGAA [Same State NG1 - A3C, U17G Submission 5F-G46A]",16.9,17.9,–,–
AAUAAUUCUCAAGGAUAUGACUCCGAAACGGAGUCAGAAGGUGAGGAUCACCCACCUAGCUCAGCGUCGAAAGACGCUGAGCAA [#SharedSequence ExNG1 - 35] (puzzle (switch architecture): Exclusion NG 1),–,–,314,apparent KD of MS2 coat protein (MS2 coat protein [2]; input ligand: none): 18.4 nM
AAGAUACUUACAGGAUAUAGGGCAGAGGGUGCCCUAGAAGGGUGAACAUGAGGAUCACCCAUGUAUGUAUCAGAUUAGAAGGCA [Inleesti],63.4,43.3,–,–
"CAGCAAUUCUUAGGAUAUGCUCAGGAAUACUGAGCAGAAGGAAGAUAUACCUGAGGAUCACCCAGGUUAAACUGAAGCUGAAUA [Same State NG1 - A3C, U17G Submission 7B]",17.4,15.7,–,–
UGGAUGGUAUGAGGAUAUGCGCGCGAAACGCGCGCAGAAGGCAUGUCAAUAGACAUGAGGAUCACCCAUGUAUUAUCCAUCCAA [MatMod 9 - Jieux - Same State NG 1],39.4,300,–,–
AAAUGUACGAAGAAGGCUCUGCCACUGGCCGAGAGAGGAUAUUCACACAUGAGGAUCACCCAUGUCGAACAAAGUACACAGAGC [EternaBot1858] (puzzle (switch architecture): Inverted Same State NG 1),–,–,7.05,–
GGAUCCAUCACAGGAUAUGCUGGACUUUGUCCAGCAGAAGGGUGACAUGAGGAUCACCCAUGUACAAAGGAUCCUAUAUUUAAU [Denovo 28],45.2,377,–,–
AAAACAUGAGGAUCACCCAUGUAAAGUUCGGAAAGUUAGAGUGAGGAUAUACAAAUUUUUAUUUAGUAGAAGGCACUGGGUACA [JR_SSNG3_Sub032Nu],24.8,26.7,–,–
GUGCACACUCGAGGAUAUCGGAGAUUUCUCCUUCGAGAAGGCGAUUCGUGCCGUGUUAUUCUGGACAUGAGGAUCACCCAUGUG [LRO026_SS NG 1 mod JR_SSNG1_Sub034],35.4,110,–,–
GGACGUCACAUUAACAUGAGGAUCACCCAUGUCAAAAGACAUGAGGAUAUGGAUCCUAAUUGGAUCCAGAAGGCAUGGACGUCC [#HiddenHairpinInALoop - Fiskers NG3ss - 39] (puzzle (switch architecture): Same State NG 3),–,–,14.8,apparent KD of MS2 coat protein (MS2 coat protein [2]; input ligand: none): 236 nM
UCACUCACGUCAGGAUAUGGAUCGGAAAACGAUCCAGAAGGGACCUGCAAACGUGAGGAUCACCCACGUUCCAAUAACGAGUGA [SameSame 11 - Jieux - Same State NG 1],29.7,35.4,–,–
UGUAUUAAUGGAGGAUAUCAAUAUCAAACAUGAGGAUCACCCAUGUUGAGGAUCACCCAUGUCCAUGAGAAGGCUGGCGUACGU [My 19th design] (puzzle (switch architecture): Same State NG 2),–,–,10.9,apparent KD of MS2 coat protein (MS2 coat protein [2]; input ligand: none): 9.37 nM
GCCAUCGCAUGAGGAUAUGCUCCCGUUUCGGGAGCAGAAGGCAUGUCAUAAGACAUGAGGAUCACCCAUGUAGUUAAGAUGGCA (puzzle (switch architecture): Same State NG 1),–,–,11.7,apparent KD of MS2 coat protein (MS2 coat protein [2]; input ligand: none): 285 nM
CCUGCACUUCAAGGAUAUCCAGUCGAAACGACUGGAGAAGGUGAGGAUCACCCACCUAGCCUGACGAAAGUCAGGCAUGCAGGA [#SharedSequence - ExNG1-3] (puzzle (switch architecture): Exclusion NG 1),–,–,8.06,apparent KD of MS2 coat protein (MS2 coat protein [2]; input ligand: none): 8.62 nM
UUUACAUGAGGAUCACCCAUGUCUGUCACGCGUGUGUGCAAUCAGGAUAUGAUCUCAAGAAUGAAUUAGAAGGGAUAACGUGAG [Attempt 5],354,366,–,–
CGCUAUGACAUGAGGAUCACCCAUGUAUACAUGGGAAUGACGUAGGAUAUGCAGAAGAUUAAAGUGCAGAAGGACGGCUUUGCG [JR #DistanceClose #Static #NP SSNG3 Sub063] (puzzle (switch architecture): Same State NG 3),–,–,214,apparent KD of MS2 coat protein (MS2 coat protein [2]; input ligand: none): 433 nM

Sequence,apparent KD of MS2 coat protein (MS2 coat protein [1]; input ligand: FMN 200 uM) [nM],apparent KD of MS2 coat protein (MS2 coat protein [1]; input ligand: none) [nM],apparent KD of MS2 coat protein (MS2 coat protein [2]; input ligand: FMN 200 uM) [nM],further results
UAUAUAUGGUGAGGAUAUGCAAAGGAUCACCUUGUAGAAGGCAUCAGGGUAGAAGGUGCAAGGAUCACCUGUAAGGAUAUAUCC [pwkr2 ssNG1 DX.25],447,1560,–,–
GGACGUCACAUUAACAUGAGGAUCACCCAUGUCAAAAGACAUGAGGAUAUGGAUCCUAAUUGGAUCCAGAAGGCAUGGACGUCC [EliMod 1 - Jieux - Same State NG 3],38.9,680,–,–
UGAUCGCUUGGAGGAUAUCCAACUAUCAUAGUUGGAGAAGGCCAAGCUACAGAGCUAAGCUUGGAAGUCACUUCCGAUCAACAC [pwkr ssNG1 F9.4.3],49.7,59.1,–,–
AAAACAUGAGGAUCACCCAUGUAUAGAUCGGUUGUUAGGAGUGAGGAUAUGCUUAAAAUAAGGUAGCAGAAGGCACUGGGUACA [JR_SSNG3_Sub071],23.6,15.3,–,–
AGAAUGACAUGAGGAUCACCCAUGUUGGGAAAACCCGUAACUCAGGAUAUGUACGCGAAAGACCGACAGAAGGGAGAUCUACAC [Amaes],43.3,37.4,–,–
AAAUAAAAUAUAGGAUAUGGAAACAUGAGGAUCACCCAUGUAAAAUAAAAUAAAUAAUAAUAUAACCAGAAGGAUAAAAUAUAA [LRO002_SS NG 2],36.1,33.9,–,–
AAACUGCCACAUGAGGAUCACCCAUGUAAAUAAAGUAUUUGAAGAAGGGCGAUAGCAAAGCUAUCGCAGGAUAUUCUCAGGCAG [#GuReductionToAU - jl-sng2-2.35] (puzzle (switch architecture): Inverted Same State NG 3),–,–,8.34,apparent KD of MS2 coat protein (MS2 coat protein [2]; input ligand: none): 43.7 nM
"CUGCAAUUCUUAGGAUAUGCUCAGGAUAACUGAGCAGAAGGAAGAUAUACCUGAGGAUCACCCAGGUUAAACUGGAGCAGAAUA [Same State NG1 - A3C, U17G Submission 8B]",33.6,179,–,–
AUAGGUUAAGGAGGAUAUAGAGGGAGAAGUAAACAUGAGGAUCACCCAUGUAUUUAAUUAGUUUACUAGAAGGCUUGUGAUUGU,50.9,45.9,–,–
CUAUAGAUAUGAGGAUAUGUAUAUCCAACAUGAGGAUCACCCAUGUUGAGGAUCACCCAUGUAAAGCAGAAGGCAUAUCUAUAG [#HighScoreProbStacks] (puzzle (switch architecture): Same State NG 2),–,–,16.6,apparent KD of MS2 coat protein (MS2 coat protein [2]; input ligand: none): 21.5 nM
AGAGCUGCUCAGAAGGAGGAUCACCCUUUCGAAAGAAAUACGGAGGCUGAAAAGCCUCCGAAAUCCUAGGAUAUGAGCAGCUCA [#SharedSequence - IExNG2: 3] (puzzle (switch architecture): Inverted Exclusion NG 2),–,–,7.43,apparent KD of MS2 coat protein (MS2 coat protein [2]; input ligand: none): 791 nM
AAAUAAACCUUAGGAUAUGACUCCGAAACGGAGUCAGAAGGGAGGAUCACCCUCUUCAGCUCAGCGUCGAAAGACGCUGAGCAA [#SharedSequence ExNG1 - 21] (puzzle (switch architecture): Exclusion NG 1),–,–,63.3,apparent KD of MS2 coat protein (MS2 coat protein [2]; input ligand: none): 72.9 nM
CAUGUCCUCACAGGAUAUGCACCACUUUGUGGUGCAGAAGGGUGGAAACAUGAGGAUCACCCAUGUGGACAUGAUAUAUUUAAU [Denovo 7],22.4,164,–,–
CCUGCACCUCAAGGAUAUCCAGUCGAAACGACUGGAGAAGGUGAGGAUCACCCAUCUAGCCUGACGAAAGUCAGGCAUGCAGGA [#SharedSequence - ExNG1-5] (puzzle (switch architecture): Exclusion NG 1),–,–,848,–
"CUGCGAUUCUUAGGAUAUCGAGUGGAAUACACUCGAGAAGGAAGAAUAACCUGAGGAUCACCCAGGUAAUACUGAAGCAGAAUA [Same State NG1 - A3C, U17G Submission 9C]",23.4,32.7,–,–
GUAGCAUACCGAGGAUAUUCAUAUAUGAAAAUAACAUGAGGAUCACCCAUGUGGCGAAAGCCUUGGGAGAAGGCGGAAUGCUAC [Xeinanis 75 22],34.4,490,–,–
"AGGAAACAUGAGGAUCACCCAUGUAAGAUAUAUACAGGAUAUGCGAAAAGAAACAAAGAAGCAGAAGGGUAAAAAA [75%, Ex sub1, 13]",–,–,–,apparent KD of MS2 coat protein (MS2 coat protein [3]): 18 nM; apparent KD of MS2 coat protein (MS2 coat protein [4]): 25.5 nM
